Experimental data: US20240262926A1 (published 2024)

T1: recombinant monkey TfR (r monkey TfR: Sino Biological Inc.) (cynomolgus monkey (Macaca fascicularis), UniProt Q5RDH6 89-760 (Pongo abelii entry))
T1 construct: Bought product; also called r monkey TfR-ECD (Histag); cynomolgus monkey TfR; not shown: histidine tag attached to the N-terminus
T1 chain: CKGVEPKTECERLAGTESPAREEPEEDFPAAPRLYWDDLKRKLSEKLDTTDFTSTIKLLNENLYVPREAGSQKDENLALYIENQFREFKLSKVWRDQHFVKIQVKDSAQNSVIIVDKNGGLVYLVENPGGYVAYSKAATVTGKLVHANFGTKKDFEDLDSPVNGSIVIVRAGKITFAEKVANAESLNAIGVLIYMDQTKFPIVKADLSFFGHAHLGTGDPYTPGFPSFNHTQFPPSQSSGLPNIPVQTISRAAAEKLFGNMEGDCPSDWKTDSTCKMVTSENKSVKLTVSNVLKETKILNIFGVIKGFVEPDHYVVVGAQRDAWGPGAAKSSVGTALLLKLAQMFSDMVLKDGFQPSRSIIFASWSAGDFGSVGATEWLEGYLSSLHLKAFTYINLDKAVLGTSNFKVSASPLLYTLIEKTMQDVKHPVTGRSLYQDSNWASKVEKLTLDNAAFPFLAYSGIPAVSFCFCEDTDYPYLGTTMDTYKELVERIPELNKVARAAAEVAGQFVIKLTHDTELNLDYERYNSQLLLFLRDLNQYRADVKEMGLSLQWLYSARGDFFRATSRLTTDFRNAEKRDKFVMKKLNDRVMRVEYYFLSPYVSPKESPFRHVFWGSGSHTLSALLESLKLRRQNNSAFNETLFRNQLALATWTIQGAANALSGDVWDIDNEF


Legend:
[1] = molecular target: human TrkB (GenBank Acc. No. NP_001018074.1) expressed in CHO cells (human, UniProt Q16620 32-822); assay: cell-based or functional assay
[2] = molecular target: T2, recombinant human TfR (r human TfR: Sino Biological Inc.) (human, UniProt P02786 89-760); assay: ELISA, plate-coated recombinant TfR, detection with biotin-labeled anti-BDNF antibody and streptavidin-HRP
T2 construct: Bought product; also called r human TfR-ECD (Histag); hTfR; not shown: histidine tag attached to the N-terminus
Procedure: (§1) The affinity of the hBDNF-anti-hTfR antibody fusion protein to hTfR was measured using an ELISA method. The measurement by the ELISA method was generally carried out by the following method. As human TfR, recombinant human TfR (r human TfR: Sino Biological Inc.) having the amino acid sequence of the extracellular region of hTfR, ranging from the cysteine residue at the position 89th from the N-terminal side to the phenylalanine at the C-terminus in the amino acid sequence set forth as SEQ ID NO:1, to the N-terminus of which a histidine tag was added, was used. As monkey TfR, recombinant monkey TfR (r monkey TfR: Sino Biological Inc.) having the amino acid sequence of the extracellular region of cynomolgus monkey hTfR, ranging from the cysteine residue at the position 89th from the N-terminal side to the phenylalanine at the C-terminus in the amino acid sequence set forth as SEQ ID NO:2, to the N-terminus of which a histidine tag was added, was used. The measurement was carried out on the hBDNF-anti-hTfR antibodies 3, 4 and 6 among the hBDNF-humanized anti-hTfR antibody fusion proteins obtained in Example 17.
(§2) Recombinant human and monkey TfR (Sino Biological Inc.) were each diluted to 0.5 μg/mL, and the diluted solution was then added in an amount of 100 μL to each well of a 96-well plate (Nunc Inc), followed by leaving it to stand for 1 hour. […]

[3] = molecular target: T1, recombinant monkey TfR (r monkey TfR: …); assay: as above
Procedure: as §1, §2

[4] = molecular target: T2, recombinant human TfR (r human TfR: …); assay: BLI (Octet RED96), method of Example 7, His-tagged TfR ECD on Ni-NTA sensor
Procedure: (§3) Each of the antibodies (anti-hTfR antibody Nos. 1 to 14) purified above was subjected to 2-fold dilution steps with HBS-P+(10 mM HEPES containing 150 mM NaCl, 50 μM EDTA and 0.05% Surfactant P20) to prepare antibody solutions of 7 different concentrations, 0.78125 to 50 nM (0.117 to 7.5 μg/mL). These antibody solutions were used as the sample solutions. The r human and r monkey TfRs were respectively diluted with HBS-P+ to prepare 25 μg/mL solutions, which were used as r human TfR-ECD (Histag) solution and r monkey TfR-ECD (Histag) solution, respectively.
(§4) Each of the sample solutions prepared above by 2-fold dilution steps was added, 200 μL/well, to a 96-well plate, black (Greiner Bio-One Inc.). Each of the r human TfR-ECD (Histag) solution and the r monkey TfR-ECD (Histag) solutions prepared above was added, 200 μL/well, to predetermined wells. To respective wells for baseline, dissociation and washing were added HBS-P+, 200 μL/well. To wells for regeneration were added 10 mM Glycine-HCl, pH 1.7, 200 μL/well. To wells for activation was added 0.5 mM NiCl₂ solution, 200 μL/well. The plate and biosensor (Biosensor/Ni-NTA: ForteBio Inc., a division of Pall Corporation) were set in the prescribed positions of Octet RED96. […] The measurement was performed at 25 to 30° C.
(§5) The affinity of the humanized anti-hTfR antibodies obtained in Example 13 to human and monkey TfRs was measured by the method described in Example 7.

[5] = molecular target: T1, recombinant monkey TfR (r monkey TfR: …); assay: as above
Procedure: as §3, §4, §5

[6] = molecular target: T2, recombinant human TfR (r human TfR: …); assay: ELISA on plate-coated recombinant TfR ('the present measurement method' of Example 18-2)
[7] = molecular target: T1, recombinant monkey TfR (r monkey TfR: …); assay: as above

human TrkB (GenBank Acc. No. NP_001018074.1) expressed in CHO cells, sequence (Q16620 32-822): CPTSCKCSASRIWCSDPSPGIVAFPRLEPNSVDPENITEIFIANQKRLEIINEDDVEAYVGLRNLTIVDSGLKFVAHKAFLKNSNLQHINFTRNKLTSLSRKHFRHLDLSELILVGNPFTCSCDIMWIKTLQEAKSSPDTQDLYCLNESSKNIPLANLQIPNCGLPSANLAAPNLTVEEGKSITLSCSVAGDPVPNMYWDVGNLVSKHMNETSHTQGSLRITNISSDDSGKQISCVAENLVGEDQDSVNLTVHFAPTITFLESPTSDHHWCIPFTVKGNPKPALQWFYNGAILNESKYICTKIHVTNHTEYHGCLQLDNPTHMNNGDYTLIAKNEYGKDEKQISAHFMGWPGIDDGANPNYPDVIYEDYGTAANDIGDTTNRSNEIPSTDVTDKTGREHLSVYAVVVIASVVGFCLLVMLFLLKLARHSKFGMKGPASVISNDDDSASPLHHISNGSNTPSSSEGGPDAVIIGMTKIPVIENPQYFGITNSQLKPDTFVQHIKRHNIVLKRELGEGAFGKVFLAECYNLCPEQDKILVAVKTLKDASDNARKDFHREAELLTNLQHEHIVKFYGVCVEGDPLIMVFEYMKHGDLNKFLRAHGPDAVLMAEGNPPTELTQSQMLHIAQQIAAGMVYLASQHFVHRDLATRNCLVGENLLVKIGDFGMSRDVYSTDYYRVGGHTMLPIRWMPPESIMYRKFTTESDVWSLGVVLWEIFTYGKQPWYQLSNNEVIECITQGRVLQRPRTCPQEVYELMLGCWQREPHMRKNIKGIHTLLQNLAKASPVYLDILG

Binder	BDNF activity (TrkB agonistic EC50, nmol/L) [1] [nmol/L]	EC50 [2] [nM]	EC50 [3] [nM]	Kd [4] [nM]	koff [4] [s⁻¹]	kon [4] [M⁻¹ s⁻¹]	Kd [5] [nM]	koff [5] [s⁻¹]	kon [5] [M⁻¹ s⁻¹]	EC50 [6] [nM]	EC50 [7] [nM]
hBDNF-anti-hTfR antibody 6 (other, also called fusion protein of hBDNF and humanized anti-hTfR antibody Fab; product of pE-neo (BDNF-Fab HC-1) and pE-hygr (LC3)) heavy: HSDPARRGELSVCDSISEWVTAADKKTAVDMSGGTVTVLEKVPVSKGQLKQYFYETKCNPMGYTKEGCRGIDKRHWNSQCRTTQSYVRALTMDSKKRIGWRFIRIDTSCVCTLTIKRGRGSGGGGSGGGGSGGGGSGGGGSGGGGSEVQLVQSGAEVKKPGESLKISCKGSGYSFTNYWLGWVRQMPGKGLEWMGDIYPGGDYPTYSEKFKVQVTISADKSISTAYLQWSSLKASDTAMYYCARSGNYDEVAYWGQGTLVTVSSASTKGPSVFPLAPSSKSTSGGTAALGCLVKDYFPEPVTVSWNSGALTSGVHTFPAVLQSSGLYSLSSVVTVPSSSLGTQTYICNVNHKPSNTKVDKKVEPKSCDKTHT light: DIVMTQTPLSLSVTPGQPASISCRSSQSLVHSNGNTYLHWYLQKPGQSPQLLIYKVSNRFSGVPDRFSGSGSGTDFTLKISRVEAEDVGVYYCSQSTHVPWTFGQGTKVEIKRTVAAPSVFIFPPSDEQLKSGTASVVCLLNNFYPREAKVQWKVDNALQSGNSQESVTEQDSKDSTYSLSSTLTLSKADYEKHKVYACEVTHQGLSSPVTKSFNRGEC	0.16	0.63	2.3	–	–	–	–	–	–	–	–
humanized anti-hTfR antibody No. 3 (antibody, human IgG1, kappa, IgG1; expressed in CHO-K1, purified on Protein A) heavy: not shown light: DIVMTQTPLSLSVTPGQPASISCRSSQSLVHSNGNTYLHWYLQKPGQSPQLLIYKVSNRFSGVPDRFSGSGSGTDFTLKISRVEAEDVGVYYCSQSTHVPWTFGQGTKVEIKRTVAAPSVFIFPPSDEQLKSGTASVVCLLNNFYPREAKVQWKVDNALQSGNSQESVTEQDSKDSTYSLSSTLTLSKADYEKHKVYACEVTHQGLSSPVTKSFNRGEC	–	–	–	< 0.001	< 1e-07	1.19e+06	1.12	0.000676	603000	0.09	0.25
